This experiment deals with NM fibers (amyloid fibers of NM; also used sonicated as seed) (Saccharomyces cerevisiae) (UniProt P05453). Put plainly: seeded fiber elongation, sedimentation and acrylodan wavelength shift assays, Lineweaver-Burk plot.
Chain of NM fibers (amyloid fibers of NM; also used sonicated as seed) (Saccharomyces cerevisiae) (P05453 1-253): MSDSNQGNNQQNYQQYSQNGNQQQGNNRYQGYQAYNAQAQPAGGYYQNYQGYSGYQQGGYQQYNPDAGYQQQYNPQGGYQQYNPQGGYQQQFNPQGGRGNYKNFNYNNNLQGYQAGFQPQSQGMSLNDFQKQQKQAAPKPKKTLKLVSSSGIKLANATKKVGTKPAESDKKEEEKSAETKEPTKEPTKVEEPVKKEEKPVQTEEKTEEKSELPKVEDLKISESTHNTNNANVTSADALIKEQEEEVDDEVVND

As to “NM^T158C-acrylodan (soluble) (from UniProt P05453 1-253) (other; other documents disagree on this pair)”, the Km turned out to be 0.12 µM and the kconf/Km (conformational conversion efficiency) turned out to be 42000 M⁻¹ s⁻¹.

The record behind these values is US20060105320A1.
